# Data as given in PMC4457833, “Effective Optimization of Antibody Affinity by Phage Display Integrated with High-Throughput DNA Synthesis and Sequencing Technologies” (PLoS ONE, 2015).
# B1: HuA21 scFv-Fc fusion antibody (humanized anti-ErbB2 antibody HuA21, wild type) (scFv, V domains shown)
# VH: QVQLVQSGAEVVKPGASVKISCKASGYSFTGYFINWVKQNPGQRLEWIGHISSSYATSTYNQKFKGKATLTVDTSASTAYMELSSLRSEDTAVYYCVRSGNYEEYAMDYWGQGTLVTVSS
# VL: DIVLTQSPDSLAVSLGERVTINCKSSQTLLYSNNQKNYLAWYQQKPGQSPKLLISWAFTRKSGVPDRFSGSGSGTDFTLTISSVQAEDVAVYYCQQYSNYPWTFGAGTKLEIK
# notes: the HuA21 scFv gene is deposited in GenBank under KP749832; also called HuA21 (wt); wild-type HuA21; source: Expi293, transfected; conditioned medium (screening ELISA); purified by Protein A and Superdex G200 size-exclusion chromatography (SPR)
# Target: T1, biotinylated recombinant dimeric ErbB2 ECD-Fc fusion protein (Homo sapiens, UniProt P04626, biotin (EZ-Link NHS-PEG4-Biotin labeling kit))
# T1 construct: ErbB2, extracellular domain (ECD); Cloned in the mammalian expression vector pSectag 2A; also called Bio-ECD; source: Expi293, transiently expressed, purified on Protein A, then biotinylated
# Experiment: SPR; Biacore 3000, 25°C; Bio-ECD (1 μg/ml in PBS) immobilised on SA sensor chip at about 300 RU; antibodies 10 μg/ml in PBS flowed at 30 μl/min, 15 min dissociation; regeneration 50 mM NaOH; triplicate
# Conditions: both partners purified
binder,measurement,value
B1,Kd,4.03 nM
same,koff,0.000262 s⁻¹
same,kon,65000 M⁻¹ s⁻¹
